Holding throughout (assay type): biochemical
Settings in all cases: normalized to best substrate

One assay deals with T1, PKA (Homo sapiens, UniProt P17612).
T1 construct: purchased Calbiochem
Kind of assay: In vitro kinase assay: peptide phosphorylation by PKA. The protocol:
(§1) Catalytically active preparations of the kinases of interest were either purchased or prepared. Purchased and tested active kinase preparations including the following: PKC-alpha, PKC-delta, PKC-epsilon, PKC-zeta, PKC-mu, PKA, PKG from Calbiochem, ROK alpha/ROCK-II, active from Upstate Biotechnology, and AKT1 from Panvera.
(§2) The conditions of the kinase assay and the amount of active kinase used varied with the kinase and with the accuracy needed. For a typical experiment, 5-20 ng of kinase was used per well and each peptide pool was assayed in duplicate wells. Note that the absolute amount of kinase used was not usually a critical parameter, because the desired information related to specificity of the kinase not its absolute activity, and robustness of the assay depends on comparisons of the same amount of kinase on different peptides. The combination of kinase concentration and assay duration was modified to assure that the stoichiometry of peptide phosphorylation never exceeded 5%. The choice of kinase buffer depended on the kinase being analyzed. For studies of PKC, 100 mM HEPES, 0.05% Triton-X100, 1 mM CaCl2, 20 mM MgCl2, 0.2 mg/ml phosphatidyl serine (Avanti Polar Lipids), PMA 100 ng/ml was typically used. The lipid stock was prepared by transferring 3 mg phosphatidyl serine into iced mixture of 450 μl water plus 50 μl of 10% Triton-X100, sonicating 10 times on ice for 1 sec each.
(§3) The kinase reaction mixture was assembled by sequential addition to a tube held on ice of: 5 μl peptide (100 μM for final concentration of 10 μM), 15 μl of kinase (typically 5 ng/well, in appropriate kinase buffer), 30 μl of ATP (1 uCi/well of ^32P-gamma ATP in a stock of 167 μM cold ATP in the kinase buffer; for final concentration for 100 μM ATP). The mixture was rapidly warmed to desired reaction temperature (30° C. for PKC) and incubated for the desired duration (usually 10 minutes). The kinase assay was terminated by transfer to 4° C. water batch, and rapid addition of an equal volume (50 μl) of stop solution [0.1M ATP+0.1M EDTA in water, pH 8].
(§4) The peptides were then captured from the reaction mixture by transfer to a Reacti-Bind Streptavidin High Binding Capacity Coated Plates (HBC) (Pierce Biotechnology) as follows. The HBC plates were pre-rinsed three times with PBS/Tween PBS/Tween20 0.05% (PBS/Tween). Part of all of the reaction mixture was then transferred wells of a HBC plate pre-filled with 90 μl of phosphate-buffered saline (PBS); typically each aliquots of each phosphorylation reaction were transferred to duplicate HBC plates to assure accuracy by additional replication
(§5) For kinase assays done at the standard peptide concentration of 10 μM, the peptide concentration in the reaction mixture becomes 5 μM after addition of the stop solution; consequently 10 μl of the reaction (50 pMoles of peptide) was transferred to the HBC plate. More generally, the amount of reaction mixture transferred was estimated to be about 50 pMoles of peptide. […] The HBC plates were incubated for 0.5 to 1.5 hr at room temperature for complete binding of biotinylated peptides to plate-bound streptavidin. The HBC plates were then washed extensively with PBS/Tween. Five washes were done routinely and additional wash steps were added if the wash solution removed from the plate had measurable radioactivity as detected using a Geiger counter. This step is essential to obtaining a good the signal to noise ratio because the fraction of radioactivity incorporated in the peptides was a tiny fraction of the total in the reaction mixture. The wells were air-dried. A volume of 40-50 μl of microScint-20 (Packard Instruments) was added to each well. The plates were covered with stick-on film sheet. Radioactive emissions were measured in a TopCount NXT Microplate Scintillation and Luminescence Counter (Packard Instruments). Typically samples were counted for 5 minutes (or more) to improve the signal to noise ratio when counts were low. […]

In the next assay the target is T2, PKC-epsilon (Homo sapiens, UniProt Q02156).
T2 construct: purchased Calbiochem
T2 sequence (Q02156 1-737): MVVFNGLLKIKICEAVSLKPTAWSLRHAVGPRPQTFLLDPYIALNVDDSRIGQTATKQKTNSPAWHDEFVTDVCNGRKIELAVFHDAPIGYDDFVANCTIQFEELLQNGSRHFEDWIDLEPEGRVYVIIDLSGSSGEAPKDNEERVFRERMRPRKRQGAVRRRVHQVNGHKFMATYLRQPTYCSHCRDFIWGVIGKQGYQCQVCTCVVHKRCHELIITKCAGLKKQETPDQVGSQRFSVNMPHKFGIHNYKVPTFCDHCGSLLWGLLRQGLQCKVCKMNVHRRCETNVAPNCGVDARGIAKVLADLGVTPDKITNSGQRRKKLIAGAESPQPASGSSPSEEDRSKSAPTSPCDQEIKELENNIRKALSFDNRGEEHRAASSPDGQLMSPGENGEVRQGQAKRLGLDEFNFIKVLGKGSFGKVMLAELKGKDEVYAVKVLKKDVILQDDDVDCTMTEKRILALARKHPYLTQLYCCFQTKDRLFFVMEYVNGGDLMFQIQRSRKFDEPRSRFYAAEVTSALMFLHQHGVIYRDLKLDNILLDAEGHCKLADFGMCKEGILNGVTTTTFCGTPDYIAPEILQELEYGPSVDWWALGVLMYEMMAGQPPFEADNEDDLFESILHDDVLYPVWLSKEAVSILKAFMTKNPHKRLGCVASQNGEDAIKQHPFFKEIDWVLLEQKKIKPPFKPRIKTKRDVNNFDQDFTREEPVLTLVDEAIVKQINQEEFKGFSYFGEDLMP
Kind of assay: In vitro kinase assay: peptide phosphorylation by PKC-epsilon. On the procedure:
as §1, §2, §3, §4, §5

Another assay addresses T3, PKC-delta (Homo sapiens, UniProt Q05655).
T3 construct: purchased Calbiochem
Put plainly: In vitro kinase assay: peptide phosphorylation by PKC-delta.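 Further: peptide concentration 10 nM.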 The gist of the method:
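Biotin-Lys-dansyl-Lys-Pro-Pro-Gly-linked proteomic peptides (12–21-residue core) phosphorylated by PKC-delta in HEPES/Triton/CaCl2/MgCl2 buffer with phosphatidyl serine and PMA, 100 μM [γ-32P]ATP, 30° C., ~10 min, stoichiometry ≤5%; streptavidin-plate capture. Signal normalized as % of best peptide substrate.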

The values below come from patent publication US20050064507A1, “Determining kinase specificity” (priority 2003, published 2005).

T3 sequence (Q05655 whole entry): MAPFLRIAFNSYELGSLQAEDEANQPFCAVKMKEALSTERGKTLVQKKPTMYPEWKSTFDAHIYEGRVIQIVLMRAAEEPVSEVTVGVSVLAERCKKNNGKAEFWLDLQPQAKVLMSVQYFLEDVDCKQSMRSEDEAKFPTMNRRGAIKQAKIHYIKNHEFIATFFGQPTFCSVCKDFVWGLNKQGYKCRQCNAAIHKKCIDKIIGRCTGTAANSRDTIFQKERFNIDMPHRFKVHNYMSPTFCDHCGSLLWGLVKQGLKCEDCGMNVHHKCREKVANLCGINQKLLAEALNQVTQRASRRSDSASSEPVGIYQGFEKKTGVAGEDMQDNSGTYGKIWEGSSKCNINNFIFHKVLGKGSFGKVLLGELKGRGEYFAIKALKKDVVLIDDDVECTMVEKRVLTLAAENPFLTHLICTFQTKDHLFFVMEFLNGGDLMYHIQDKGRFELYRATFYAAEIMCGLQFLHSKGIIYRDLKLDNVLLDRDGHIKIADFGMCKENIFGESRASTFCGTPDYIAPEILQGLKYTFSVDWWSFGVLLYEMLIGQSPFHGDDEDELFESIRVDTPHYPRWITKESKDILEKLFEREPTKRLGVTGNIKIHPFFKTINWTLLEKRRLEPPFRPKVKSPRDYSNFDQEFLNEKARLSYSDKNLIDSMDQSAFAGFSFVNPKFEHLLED

As for 92 (DGQKRKKSLRKKLD) [compound 92], the PKA phosphorylation with PKA is listed as 18%. For the same substance, the PKC-epsilon phosphorylation in the assay with PKC-epsilon is listed as 51%. Further, the PKC delta phosphorylation in the assay with PKC-delta amounted to 17%.
As for 93 (AARKKRISVKKKQEQ) [compound 93], the PKA phosphorylation with PKA amounted to 1%. Besides, the PKC-epsilon phosphorylation with PKC-epsilon is 40%. In addition, in the assay with PKC-delta, the PKC delta phosphorylation came to 35%.
Taken in the same sequence, the figures for 94 (KLAVGRHSFSRRSGV) [compound 94] were 5%, 13% and 12%.
For the substance 95 (KKKFRTPSFLKKSKK) [compound 95], in the assay with PKA, the PKA phosphorylation turned out to be 2%. The PKC-epsilon phosphorylation with PKC-epsilon is recorded as 31%. For the same substance, in the assay with PKC-delta, the PKC delta phosphorylation is reported as 25%.
As for 96 (RGFLRSASLGRRASFHLE) [compound 96], the PKA phosphorylation with PKA was found to be 86%. In addition, in the assay with PKC-epsilon, the PKC-epsilon phosphorylation is on record as 41%. Further, in the assay with PKC-delta, the PKC delta phosphorylation is listed as 18%.
Regarding 99 (AGWRKKTSFRKPKED) [compound 99], the PKA phosphorylation with PKA is reported as 1%. The PKC-epsilon phosphorylation with PKC-epsilon stood at 27%. Also, the PKC delta phosphorylation in the assay with PKC-delta came to 17%.
For 100 (WKGKRRSKARKKRK) [compound 100], the PKA phosphorylation with PKA is given as 2%. Besides, in the assay with PKC-epsilon, the PKC-epsilon phosphorylation is listed as 13%. Further, in the assay with PKC-delta, the PKC delta phosphorylation turned out to be 22%.
In the case of 101 (GAPPRRSSIRNAH) [compound 101], in the assay with PKA, the PKA phosphorylation came to 100%. Moreover, in the assay with PKC-epsilon, the PKC-epsilon phosphorylation is 19%. Further, the PKC delta phosphorylation with PKC-delta was 13%.
For the substance 102 (AGSFKRNSIKKIV) [compound 102], in the assay with PKA, the PKA phosphorylation was determined as 5%. In addition, the PKC-epsilon phosphorylation with PKC-epsilon is reported as 14%. In addition, in the assay with PKC-delta, the PKC delta phosphorylation was 14%.
Take 103 (LLKKRDSFRTPRDSKLE) [compound 103]: the PKA phosphorylation with PKA is recorded as 3%. In the assay with PKC-epsilon, the PKC-epsilon phosphorylation came to 21%. In the assay with PKC-delta, the PKC delta phosphorylation turned out to be 12%.
Consider 104 (EKIKRSSLKKVDSLKK) [compound 104], for which the PKA phosphorylation with PKA is 1%. Further, the PKC-epsilon phosphorylation in the assay with PKC-epsilon was 17%. Also, in the assay with PKC-delta, the PKC delta phosphorylation worked out at 10%.
On to 105 (ALRRPSLRREADD) [compound 105], for which, in the assay with PKA, the PKA phosphorylation came to 84%. The PKC-epsilon phosphorylation with PKC-epsilon is given as 29%. In addition, the PKC delta phosphorylation in the assay with PKC-delta worked out at 9%.
On to 106 (EILSRRPSYRKILND) [compound 106], for which the PKA phosphorylation in the assay with PKA was found to be 30%. The PKC-epsilon phosphorylation with PKC-epsilon was determined as 31%. Further, the PKC delta phosphorylation with PKC-delta is reported as 9%.
As for 107 (QKRHARVTVKYDRRE) [compound 107], the PKA phosphorylation in the assay with PKA was determined as 2%. Moreover, in the assay with PKC-epsilon, the PKC-epsilon phosphorylation came to 7%. In the assay with PKC-delta, the PKC delta phosphorylation was 10%.
Consider 108 (KATTKKRTLRKNDRK) [compound 108], for which the PKA phosphorylation with PKA turned out to be 0%. In addition, the PKC-epsilon phosphorylation with PKC-epsilon is listed as 8%. In the assay with PKC-delta, the PKC delta phosphorylation is on record as 6%.
For the substance 109 (KEVVRTDSLKGRRGR) [compound 109], the PKA phosphorylation with PKA was determined as 1%. Also, in the assay with PKC-epsilon, the PKC-epsilon phosphorylation is 26%. For the same substance, the PKC delta phosphorylation with PKC-delta was 7%.
Regarding 110 (EGGDRRASGRRK) [compound 110], the PKA phosphorylation with PKA is 1%. Moreover, in the assay with PKC-epsilon, the PKC-epsilon phosphorylation worked out at 4%. Also, the PKC delta phosphorylation in the assay with PKC-delta was 5%.
For the substance “111 (KKKRFSFKKSFKLSGFSFKK) [compound 111]”, the PKA phosphorylation with PKA is listed as 3%. In addition, the PKC-epsilon phosphorylation with PKC-epsilon came to 12%. For the same substance, the PKC delta phosphorylation with PKC-delta is 16%.
Regarding 112 (KRPGKKGSNKRPGKR) [compound 112], the PKA phosphorylation with PKA came out at 0%. For the same substance, the PKC-epsilon phosphorylation in the assay with PKC-epsilon came to 11%. Moreover, the PKC delta phosphorylation with PKC-delta is listed as 8%.
Take 113 (GENVLKKSMKSRVKG) [compound 113]: in the assay with PKA, the PKA phosphorylation stood at 0%. In addition, the PKC-epsilon phosphorylation with PKC-epsilon is recorded as 10%. Further, the PKC delta phosphorylation with PKC-delta turned out to be 4%.
